Laboratory results reported in patent US20120210456A1 (MENDEL BIOTECHNOLOGY, published 2012).

Molecular target: T1, SALT TOLERANCE HOMOLOG2 (STH2) (Arabidopsis thaliana, UniProt Q9LQZ7 1-331, limits assumed)
T1 construct: also called G1482
T1 sequence: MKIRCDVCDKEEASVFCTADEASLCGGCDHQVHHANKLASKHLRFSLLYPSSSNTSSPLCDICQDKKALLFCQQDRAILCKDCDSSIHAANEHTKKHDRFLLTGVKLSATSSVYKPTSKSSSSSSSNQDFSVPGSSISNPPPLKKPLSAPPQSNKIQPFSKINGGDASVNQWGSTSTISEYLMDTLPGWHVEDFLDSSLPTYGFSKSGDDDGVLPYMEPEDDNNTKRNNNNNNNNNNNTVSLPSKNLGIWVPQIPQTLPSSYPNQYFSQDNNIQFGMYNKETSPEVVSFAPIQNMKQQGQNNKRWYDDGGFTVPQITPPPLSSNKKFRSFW
Assay: in vitro and protoplast based studies (methods not described)

B1: G1988 (other)
chain: MVSFCELCGAEADLHCAADSAFLCRSCDAKFHASNFLFARHFRRVICPNCKSLTQNFVSGPLLPWPPRTTCCSESSSSSCCSSLDCVSSSELSSTTRDVNRARGRENRVNAKAVAVTVADGIFVNWCGKLGLNRDLTNAVVSYASLALAVETRPRATKRVFLAAAFWFGVKNTTTWQNLKKVEDVTGVSAGMIRAVESKLARAMTQQLRRWRVDSEEGWAENDNV
notes: also called B-box zinc finger transcription factor G1988
binding result: binds
